The nature of data set [1]: Uptake of the active ingredient in canola seedling cotyledons after seed treatment with or without cutinase. Particulars: canola, cotyledons (leaf), other: seed treatment (slurry applied to seeds), 20.1 μg/seed; Cotyledon analysis seven days after planting; normalized using mean % Al recovery (90.9%) and mean % coating efficiency; read-out: Mean Al Uptake (ng/mg leaf). The class given is in vivo. The protocol:
(§1) Canola seeds were treated with formulated product diluted in water by spinning 100 g seed in a 1-liter HEGE bowl while applying treatment slurry. Seeds were spun until dry.
(§2) On the day of planting, 24-well plates (10 mL, nonsterile) were filled with a highly organic plug & seedling mix. Water was uniformly applied to the soil surface using a spray nozzle until just before complete saturation of soil column. Soil was tamped down to a level of 1 cm below plate surface. One treated seed was placed on the soil surface of each well and then covered with potting mixture leveled to the plate surface. The top soil surface was sprayed once more to moisten. Plates were then held in an incubator and top-watered as needed with fertilizer water (NPK 16-4-20-3(Ca)-1(Mg)) via spray nozzle. Seven days after planting, both cotyledons from ten plants were sampled for analysis by clipping the point where cotyledon meets stem. Replication was 10×.
(§3) The seed/excised cotyledons were extracted with acetonitrile solvent (3 mL, containing 1% acetic acid) by homogenization in Teflon tubes using 2010 Geno/Grinder (Spex Sample Prep) for 2 min at 1200 RPM. The homogenate was then mixed with anhydrous sodium sulphate (˜600 mg), sodium acetate (˜100 mg) and vortexed well before centrifugation using Beckman Coulter (Allegra X-14R) centrifuge for 5 min at 3000 RPM. The clear supernatant was then transferred into appropriate vials for LC/MS analysis.
(§4) LCMS analyses were performed using Thermo Fisher Scientific Extractive Orbitrap Mass Analyzer with electrospray positive mode of ionization. Thermo Fisher Scientific Surveyor MS Plus Pump and autosampler were used for the chromatographic runs through a column (Sonoma-C18, 2.1×100 mm, 5 μm). The gradient started with 98:2 Water/MeOH (containing 4 mM ammonium formate and 0.1% formic acid) and ending with 98:2 MeOH/Water in about 10 min.

In another data set the test system is canola seedlings. The data set is described as above. The class given is in vivo. The following applies: for Al Uptake (%) / Mean Al Uptake (ng/mg leaf): Cotyledon analysis seven days after planting; for Al Uptake (%): calculated based on spiked control, 22340 ng/replicate; for Mean Al Uptake (ng/mg leaf): normalized using mean % Al recovery (90.9%) and mean % coating efficiency. The protocol:
as §1, §2, §3, §4

For another data set, the system named is wheat seedlings. The data set can be described thus: Clothianidin uptake in wheat seedlings (cotyledon analysis) after seed treatment with cutinases. The class given is in vivo, Triticum sp. Particulars: for Average of clothianidin detected on 15 pairs of wheat cotyledons: wheat seed treatment with clothianidin plus enzyme-containing cell extract; for % Clothianidin uptake in wheat cotyledons: wheat seed treatment, one way ANOVA test (P = 0.002); for percent clothianidin uptake in wheat seedlings, effect of cutinase seed treatment: P=0.002. The protocol: a. Seed treatment: Formulations were diluted and enzymes were dissolved in HPLC water. Solutions were made and mixed immediately before each treatment. For each treatment, 100 g of spring wheat seeds (Triticum sp.) were placed in a 1-L bowl of a HEGE 11 seed treater. Treatment slurry was applied to spinning seeds in an application volume of 1.5 mL including 2.05 mg of lyophilized enzyme-containing cell extracts and seeds were spun until dry. Directly after treatment, seeds were transferred to paper seed pouches and stored in a cooler filed with ice packs until planting.
b. Plant incubation: Before seed treatment, 24-well plates were filled with RediEarth potting mixture sifted through a 3.35-mm mesh sieve. Tap water was uniformly applied to the soil surface using a conical spray nozzle until just before complete saturation of soil column (˜55 mL/plate). The soil was tamped down to a level of 1 cm below plate surface. One hour after treatment, one seed was placed on the soil surface of each well. RediEarth was sifted directly over the wells and the soil line was levelled to the plate surface. The soil surface was moistened again with ˜22 mL water/plate. Plates were then held in a randomized complete block design in an incubator at 25° C., 50% RH containing two FloraSun (F25T8 Plant Growth) lights at 14L:10D. Replication was 10 plates per treatment.
d. Cotyledon analysis: Fifteen excised pairs of wheat cotyledons were extracted (10× replicates) with acetonitrile solvent (10 mL, containing 1% acetic acid) by homogenization. The homogenate is first centrifuged to bring down the solvent/material sticking to the cap using Beckman Coulter (Allegra X-14R) centrifuge for 3 min at 3000 RPM. The collected homogenate is then treated with anhydrous magnesium sulfate (˜3500 mg), sodium acetate (˜220 mg) and vortexed well (˜30s) before further centrifugation for the same duration as above. The supernatant clear solution is then transferred into appropriate vials for LC/MS analysis without further dilution.
Control samples were prepared by spiking a known amount std clothianidin into 15 pairs of cotyledons (10 replicates) collected from the seedlings of untreated […] seeds and homogenized and processed as above. The recovery of the AI was quantified from the LC/MS data and then used to normalize the results from treated cotyledon sample sets.
LCMS analyses were performed using Thermo Fisher Scientific Q-Exactive Mass Analyzer with electrospray positive mode of ionization. Thermo Fisher Scientific Surveyor MS Plus Pump and autosampler were used for the chromatographic runs through a column (Sonoma-C18, 2.1×100 mm, 5 u). The gradient started with 98:2 Water/MeOH (containing 4 mM ammonium formate and 0.1% formic acid) and ending with 98:2 MeOH/Water in about 10 min.

Marks after values point to notes of the source that are not given here.

Data on five molecules can be found in patent US20230039941A1, “ENZYME ENHANCED ROOT UPTAKE OF AGROCHEMICAL ACTIVE COMPOUND” (BASF SE, priority 2019, published 2023).

As for `C[n+]1c([O-])c(-c2ccccc2)c(=O)n2c1SC[C@@H]2c1cnc(Cl)s1` [(3R)-3-(2-chlorothiazol-5-yl)-8-methyl-5-oxo-6-phenyl-2,3-dihydrothiazolo[3,2-a]pyrimidin-8-ium-7-olate], the concentration at 7 days after planting in data set [1] is 2290 ng/g. The “Al Uptake (%)” value with canola seedlings is reported as 0.40%.
Regarding `CN/C(=N\[N+](=O)[O-])NCc1cnc(Cl)s1` [clothianidin, reference compound], in the data set with wheat seedlings, the “Average of clothianidin detected on 15 pairs of wheat cotyledons” value (“Average of clothianidin detected” for short) amounted to 9.4 ± 2.0 ng and the “% Clothianidin uptake in wheat cotyledons” value (“% Clothianidin uptake” below) is reported as 0.39 ± 0.08^a %.

B1: CUT-4: Cutinase according to SEQ No. 4, Pseudomonas mendocina (94%), NCBI WP_096825365.1 (protein)
chain: APLPDTPGAPFPSVSNFDRSGPYATTSRSEGPNCRVYRPATLGQNGVRHPIVLWGNGTGTGPTAYSGLLSHWASHGFVVAAAETSNAGTGEQMLACLDYLVQESNRTYGTYVGVLNTGRVGTSGHSQGGGGSIMAGQDERVSVTAPIQPYTIGLGHDSASQRNQQGPMFLMSGGGDTIAFPYLNAQPVYTRANVPVFWGERRYVSHFEPVGDGGAYRGPSTAWFRYHLMEDETARSTFYGRFCGLCTSVLWTEERKDIE
modifications: Pseudomonas sp. SST3; Cutinase 9
For the molecule B1, in the data set with wheat seedlings, the “percent clothianidin uptake in wheat seedlings, effect of cutinase seed treatment” value (“percent clothianidin uptake” below) is “improvement was not significant”; the “Average of clothianidin detected” value stood at 10.8 ± 2.1 ng; the “% Clothianidin uptake” value was 0.44 ± 0.09^a %. Moreover, in the data set on canola seedlings, the “Al Uptake (%)” value is on record as 0.43% and the “Mean Al Uptake (ng/mg leaf)” value came to 2.16 ng/mg leaf.

B2: CUT-1: Cutinase according to SEQ No. 1, biological source Pseudomonas mendocina (US5545547A) (protein, listed as Pseudomonas mendocina)
chain: APLPDTPGAPFPAVANFDRSGPYTTSSQSEGPSCRIYRPRDLGQGGVRHPVILWGNGTGAGPSTYAGLLSHWASHGFVVAAAETSNAGTGREMLACLDYLVRENDTPYGTYSGKLNTGRVGTSGHSQGGGGSIMAGQDTRVRTTAPIQPYTLGLGHDSASQRRQQGPMFLMSGGGDTIAFPYLNAQPVYRRANVPVFWGERRYVSHFEPVGSGGAYRGPSTAWFRFQLMDDQDARATFYGAQCSLCTSLLWSVERRGL
modifications: Cutinase 1
Consider B2, for which, in the data set with wheat seedlings, the “percent clothianidin uptake” value is “significantly enhanced”; the “Average of clothianidin detected” value was 12.5 ± 3.2 ng; the “% Clothianidin uptake” value is recorded as 0.59 ± 0.15^b %. For the same molecule, in the data set on canola seedlings, the “Al Uptake (%)” value is recorded as 0.60% and the “Mean Al Uptake (ng/mg leaf)” value is listed as 3.04 ng/mg leaf. For the same molecule, in the data set with canola seedlings (canola cotyledon analysis), the “mean AI uptake (ng/mg leaf) compared with no enzyme control” value is “significantly higher than no enzyme control” and the “percent of AI uptake compared with no enzyme control” value is on record as “significantly higher than no enzyme control”.

B3: CUT-2: Cutinase according to SEQ No. 2, biological source Pseudomonas mendocina (PDB 2FX5_A) (protein, listed as Pseudomonas mendocina)
chain: APLPDTPGAPFPAVANFDRSGPYTVSSQSEGPSCRIYRPRDLGQGGVRHPVILWGNGTGAGPSTYAGLLSHWASHGFVVAAAETSNAGTGREMLACLDYLVRENDTPYGTYSGKLNTGRVGTSGHSQGGGGSIMAGQDTRVRTTAPIQPYTLGLGHDSASQRRQQGPMFLMSGGGDTIAFPYLNAQPVYRRANVPVFWGERRYVSHFEPVGSGGAYRGPSTAWFRFQLMDDQDARATFYGAQCSLCTSLLWSVERRGL
modifications: Cutinase 2
For the molecule B3, in the data set with wheat seedlings, the “percent clothianidin uptake” value is on record as “improvement was not significant”; the “Average of clothianidin detected” value amounted to 11.9 ± 3.4 ng; the “% Clothianidin uptake” value is given as 0.53 ± 0.15^ab %. Also, in the data set on canola seedlings, the “Al Uptake (%)” value is given as 0.39% and the “Mean Al Uptake (ng/mg leaf)” value came to 1.87 ng/mg leaf.
